From US20050019758A1 (GlaxoSmithKline, published 2005) come the findings set out here.

Test [1] deals with T1, F protein of RS Long strain virus (native form, on virus and infected VERO cells) (Respiratory Syncytial Virus, UniProt P12568 26-574). As to the kind of experiment: cell-based or functional assay.
In test [2] the target is T1, F protein of RS Long strain virus …. As to the kind of experiment: cell-based or functional assay. This is another data set of the same source.
For test [3] the target is unchanged. The experiment in a line: ELISA on methanol-fixed VERO cells infected with RS Long virus, biotinylated mAb 19B, HRP-streptavidin. For orientation: ELISA stands for enzyme-linked immunosorbent assay.
Test [4] has the same target. The experiment in a line: cell-based or functional assay. The source holds these as a separate data set.

Positions count from the first letter of the chain named. Where “and” joins values, the source holds several entries; their conditions need not be identical. Equal entries are not always repeated. Where two headings read alike, the source gives them in different places.

T1 sequence (P12568 26-574): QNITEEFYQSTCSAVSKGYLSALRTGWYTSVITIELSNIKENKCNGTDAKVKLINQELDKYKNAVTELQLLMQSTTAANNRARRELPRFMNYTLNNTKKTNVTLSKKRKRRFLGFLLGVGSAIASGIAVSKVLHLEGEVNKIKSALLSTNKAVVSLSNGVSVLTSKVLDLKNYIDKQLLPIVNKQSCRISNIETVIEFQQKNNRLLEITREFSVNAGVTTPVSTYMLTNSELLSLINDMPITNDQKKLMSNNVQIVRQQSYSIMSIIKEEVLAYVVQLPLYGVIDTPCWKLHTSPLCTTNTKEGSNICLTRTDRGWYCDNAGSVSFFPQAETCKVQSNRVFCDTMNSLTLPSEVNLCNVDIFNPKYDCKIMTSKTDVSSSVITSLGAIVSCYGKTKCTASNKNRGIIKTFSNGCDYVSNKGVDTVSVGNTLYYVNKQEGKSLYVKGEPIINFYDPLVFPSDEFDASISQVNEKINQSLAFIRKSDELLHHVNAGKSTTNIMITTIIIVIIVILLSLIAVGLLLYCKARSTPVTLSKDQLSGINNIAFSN

B1: mAb 19B (antibody, human IgG1)
VH: QVQLVVESGGGLRPGGSLRLSCAASGTTLSGYTMHWVRQAPGKGLEWVSSITGGSNFINYSDSVKGRFTISRDNAKNSLYLQMNSLTAEDTAVYYCATAPIAPPYFDHWGQGTLVTVSS
light: DIQMTQSPSSLSASVGDRVTITCRATQSVSNFLNWYQQKPGEAPTLLIYDASTSQSGVPSRFSGSGSGMDFSLTISSLQPEDLAMYYCQASINTPLFGGGTRIDMRR
modifications: N-linked carbohydrate at Asn59 in part of the molecules (glycovariant)
notes: Human IgG1, kappa; also called Hu19B; version B
For orientation: EC50 means the concentration at which the effect is half-maximal. Consider B1, for which the “Fusion-Inhibition Titer EC50” value in test [1] amounted to 2.5 µg/mL. For the same molecule, the “Fusion-Inhibition Titer EC50” value in test [2] was 2.3 µg/mL. In test [3], this molecule gave a 50% effective concentration (EC50) of 0.034 µg/mL. For the same molecule, in test [4], the “Fusion-Inhibition EC50” value is 2.3 ug/ml and 15.3 nM; the “Neutralization EC50” value turned out to be 1.5 µg/mL.

B2: Fab19B (Fab)
VH: B1 VH
light: DIQMNFLNWYQQKPGEAPTLLIYDASTSQSGVPSRFSGSGSGMDFSLTISSLQPEDLAMYYCQASINTPLFGGGTRIDMRR
modifications: N-linked carbohydrate at Asn59 in <10% of the preparation (Table 4)
With B2, in test [1], the “Fusion-Inhibition Titer EC50” value was 0.12 µg/mL. Besides, the “Fusion-Inhibition EC50” value in test [4] is 0.12 ug/ml and 2.4 nM.

B3: mAb 19C (antibody, human IgG1)
VH: B1 VH with S61A
light: not shown
For B3, the “Fusion-Inhibition EC50” value in test [4] was 2.4 ug/ml and 16 nM.

B4: mAb 19B Fraction A (<5% glycovariant) (antibody, human IgG1)
VH: B1 VH
light: B2 light
modifications: N-linked carbohydrate at Asn59 in <5% of the preparation
As for B4, the “Fusion-Inhibition Titer EC50” value in test [1] was determined as 1.8 µg/mL.

B5: mAb 19B Fraction B (40% glycovariant) (antibody, human IgG1)
VH: B1 VH
light: B2 light
modifications: N-linked carbohydrate at Asn59 in 40% of the preparation
For the molecule B5, the “Fusion-Inhibition Titer EC50” value in test [1] came out at 3.8 µg/mL.

B6: mAb 19D (antibody, human IgG1)
VH: B1 VH with N59Q
light: not shown
On to B6, for which the “Fusion-Inhibition EC50” value in test [4] is 2.6 ug/ml and 17.3 nM.

B7: Fab19B Fraction C (99% glycovariant) (Fab)
VH: B1 VH
light: B2 light
modifications: N-linked carbohydrate at Asn59 in 99% of the preparation
For B7, the “Fusion-Inhibition Titer EC50” value in test [1] stood at 3.7 µg/mL.

B8: Fab19B Fraction B (94% glycovariant) (Fab)
VH: B1 VH
light: B2 light
modifications: N-linked carbohydrate at Asn59 in 94% of the preparation
Take B8: the “Fusion-Inhibition Titer EC50” value in test [1] was 1.5 µg/mL.

B9: Fab19B Fraction A (1% glycovariant) (Fab)
VH: B1 VH
light: B2 light
modifications: N-linked carbohydrate at Asn59 in 1% of the preparation
With B9, the “Fusion-Inhibition Titer EC50” value in test [1] turned out to be 0.89 µg/mL.

B10: Fab19 (Fab)
VH: EVQLLEVESGGGLRPGGSLRLSCAASGTTLSGYTMHWVRQAPGKGLEWVSSITGGSNFINYSDSVKGRFTISRDNAKNSLYLQMNSLTAEDTAVYYCATAPIAPPYFDHWGQGTLVTVSS
light: ELTQSPSSLSASVGDRVTITCRATQSVSNFLNWYQQKPGEAPTLLIYDASTSQSGVPSRFSGSGSGMDFSLTISSLQPEDLAMYYCQASINTPLFGGGTRIDMRR
As for B10, in test [4], the “Fusion-Inhibition EC50” value is 0.22 ug/ml and 4.4 nM; the “Neutralization EC50” value turned out to be 0.34 µg/mL.

B11: Fab19A (Fab)
VH: B10 VH
light: B10 light
In the case of B11, the “Fusion-Inhibition EC50” value in test [4] was 0.16 ug/ml and 3 nM.

B12: mAb 19A (antibody, human IgG1)
VH: B10 VH
light: B10 light
Regarding B12, in test [4], the “Fusion-Inhibition EC50” value is 18.9 nM and 2.8 ug/ml; the “Neutralization EC50” value amounted to 2.2 µg/mL.
